# B1: 2C8H11: humanized anti-Ang2 human IgG1 antibody from mouse 2C8; VH SEQ ID NO: 55, VL SEQ ID NO: 56 (antibody, V domains shown)
# VH: QVQLVQSGAEVKKPGASVKVSCKASGYTFTSYWMHWVRQAPGQGLEWMGMIDPSDSETRLNQKFKDRVTMTRDTSTSTVYMELSSLRSEDTAVYYCARRFYYGSDWYFDVWGQGTLVTVSS
# VL: DIQLTQSPSFLSASVGDRVTITCKASQDVGTAVAWYQQKPGKAPKLLIYWASTRHTGVPSRFSGSGSGTEFTLTISSLQPEDFATYYCQQYSSYPLTFGQGTKVEIK
# modifications: human IgG1 constant regions; VH; VL
# Columns and labels:
# [1] = system: choroidal neovascularization (CNV) / choriocapillaris; assay: Laser-induced CNV model, OCTA: CNV volume and choriocapillary regeneration (avascular space); assay type: in vivo, mice; settings: for reduction of the avascular space: 5 μg intravitreal at 7 days, change from baseline
# Method: To determine the effect of 2C8H11 in CNV regression and choriocapillary regeneration after establishment of CNV, Fc, VEGF-Trap, control antibody or 2C8H11 (5 μg each) was given intravitreally to the mice by the Nanoliter 2000 micro-injector (World Precision Instruments) at 7 days after laser photocoagulation. Intra-vital optical coherence tomography angiography (OCTA) was performed at 6, 14, 21, and 35 days after laser photocoagulation (FIG. 14A). The retinochoroidal layers were imaged using a prototype high-speed swept-source optical coherence tomography (OCT) system, utilizing a custom ring cavity wavelength-swept laser centered at 1048 nm with an A-scan rate of 230 kHz. OCT images were collected in a 1.7 mm×1.7 mm field of view within the retino-choroidal layer to monitor regeneration of choroidal vasculatures at the site of laser photocoagulation after intravitreal injection of reagents. […] Then, by using automatic layer flattening and segmentation algorithms, cross-sectional OCT angiograms were flattened to RPE, and en face OCT angiograms were generated by separate projection of each flattened cross-sectional OCT angiogram in three depth ranges: inner retinal, outer retinal and choroidal layers. The outer plexiform layer and Bruch's membrane were defined as the boundaries separating inner retinal, outer retinal, and choroidal layers. The density of retina and choroid vessel was automatically calculated as the proportion of measured area occupied by flowing blood vessels defined as pixels having decorrelation values above the threshold level. Avascular pixels were detected from the en face OCT angiogram representing choroidal layer by means of the image processing toolbox of MATLAB® (Math Works). Then the total volume of the avascular space surrounding the laser injury site was calculated by summing the number of avascular pixels multiplied by the volume of one pixel. In order to analyze the changing complexion of avascular space volume, serially measured values in each eye were transformed into percentage change from baseline value. […] Overall, these findings indicate that both 2C8H11 and […] promotes regeneration of the choriocapillaris, while VEGF-Trap leads to choriocapillary regression in the laser-induced CNV model.
# [2] = system: Tie2 receptor clustering / FOXO1 translocation in HUVECs; assay: Tie2 clustering and FOXO1 translocation in HUVECs (immunofluorescence); assay type: cell-based, human
# Method: Tie2 clustering at cell-cell junction area and FOXO1 translocation from nucleus to cytosol by anti-Ang2 antibodies were examined in HUVECs by immunofluorescence. Specifically, HUVECs were seeded on 8 well slide chamber (Lab-Tek™ II) and maintained in EGM-2 medium for 2-3 days. At 100% confluence, the cells were serum starved with EBM-2 medium for 4 hrs and then treated with 1 μg/ml anti-Ang2 antibodies together with 1 μg/ml of hAng2 for 30 min. Thereafter, the cells were fixed with 4% formaldehyde in PBS at room temperature (RT) for 10 min, permeabilized with 0.1% TRITON™ X-100 (non-ionic polyoxyethylene surfactant) in PBS, blocked with 1% BSA in PBS at RT for 60 min, and incubated with primary antibodies at RT for 1 hr. The primary antibodies for hTie2, FOXO1, and Human Fc were used. The cells were then incubated with secondary antibodies (Invitrogen) in the dark at RT for 1 hr and mounted with VECTASHIELD® mounting medium with DAPI (Vector Labs, antifade mounting media optimized for immunofluorescence applications). Images were taken with a laser scanning confocal microscope (LSM880, Carl Zeiss).
# 2C8H11-induced Tie2 clustering and FOXO1 translocation was examined in a time-course study (from 10 min to 240 min). […] 6-4: Inhibition of Vascular Permeability by Humanized Anti-Ang2 Antibodies
# [3] = system: choroidal neovascularization (CNV); assay: Laser-induced CNV model, subcutaneous injection: CNV inhibition; assay type: in vivo, mice; settings: 25 mg/kg subcutaneous at 1 day; 8 days after laser photocoagulation
# Method: To determine the effect of subcutaneously injected 2C8H11 antibody in CNV inhibition, the subcutaneous administration of 2C8H11 antibody (25 mg/kg) was performed at 1 day after laser photocoagulation. As a control, Fc (25 mg/kg) was administered in a same manner to the mice. Anti-CD31 antibody (1:200, Millipore®) was used for the detection of endothelial cells of CNV, and CD31+CNV volumes of the RPE-choroid-sclera flat mounts were calculated using the MATLAB® Image Processing Toolbox™(Math Works) at 8 days after laser photocoagulation (FIG. 16A).
# [4] = system: LLC (Lewis Lung Carcinoma) tumor; assay: Tumor growth inhibition in LLC subcutaneous model; assay type: in vivo, C57BL/6 mice; settings: LLC s.c.; antibody 10 mg/kg i.p. every 2-3 days; Cpt 3 mg/kg i.p. once
# Method: 2C8H11 anti-Ang2 antibody was tested for its ability to inhibit tumor growth in LLC (Lewis Lung Carcinoma) cell line tumor model. Specifically, LLC cell line (ATCC) was cultured in DMEM (GIBCO™) supplemented with 10% FBS (GIBCO™). LLC cells (1×10^6 in 100 μl of PBS) were subcutaneously injected into 6˜8-week-old C57BL/6 mice (Jackson Laboratory) which were anesthetized with a mixture of Ketamine and Xylazine. When the volume of the tumors reached 50˜100 mm^3, the mice were intraperitoneally administered with 10 mg/kg of 2C8H11 antibody every 2˜3 days. Cisplatin (Cpt) was injected intraperitoneally once at a dose of 3 mg/kg in both monotherapy and combination therapy groups. The changes in tumor volume was tracked over the following days. Tumor volume (V) was measured using the formula: V=(width^2×length)/2 V=(width^2×length)/2
# The experiment was performed in 4 groups: Fc (control group), Fc+Cpt group, 2C8H11 group, and 2C8H11+Cpt group. […] Meanwhile, combined treatment with 2C8H11 and Cpt delayed tumor growth by 47% compared with Fc.
molecule,measurement,setting,value
B1,CNV volume in outer retinas (OCTA),[1]; 5 μg intravitreal at 7 days after laser photocoagulation,markedly reduced CNV volume
same,reduction of the avascular space,[1]; 14 days after laser photocoagulation,30.1%
same,reduction of the avascular space,[1]; 21 days after laser photocoagulation,36.4%
same,reduction of the avascular space,[1]; 35 days after laser photocoagulation,37.0%
same,co-localization of antibody with Tie2 receptor,"[2]; HUVECs, 30 min, anti-human Fc staining",co-localized with clustered Tie2 receptor at cell-cell contact and endocytosed Tie2 receptor in cytosol
same,Tie2 translocation/clustering to cell-cell contact,"[2]; HUVECs, 30 min, antibodies 1 μg/ml with hAng2 1 μg/ml",induced Tie2 translocation/clustering to cell-cell contact
same,FOXO1 translocation from nucleus to cytosol,"[2]; HUVECs, 30 min, compared to serum-starved control",markedly disappeared in nucleus
same,Tie2 receptor / Tie2 clustering at cell-cell contact at late time points,"[2]; time-course, with hAng2, 120 min and 240 min",sustained even after 240 min treatment
same,co-localized antibody with Tie2 at cell-cell contact,"[2]; time-course, with hAng2, up to 240 min",maintained until 240 min
same,inhibition of CNV formation compared with Fc (CD31+ CNV volume),[3],69.9%
same,tumor growth inhibition compared with Fc,[4],29%

# Reference: patent publication US12331106B2, “Anti-angiopoietin-2 antibodies that induce Tie2 activation” (Institute for Basic Science, priority 2018, dated 2025)
